Laboratory results reported in US10428140B2, “Anti-EphA4 antibody” (EISAI R&D MANAGEMENT CO., LTD., priority 2015, dated 2019).
Numbering of substitutions follows the chain as printed.

B1: 87 (antibody, V domains shown)
VL: DIQMTQSPSSLSASVGDRVTITCRASENIYRNLAWYQQKPGKAPQLLLYAATNLADGVPSRFSGSGSGTDYTLTISSLQPEDFATYYCQHFWGTPWTFGQGTKVEIK
VH: QVQLVQSGSELKKPGASVKVSCKASGYTFTDYSMHWVRQAPGQGLEWMGWINTETGEPTYAQGFTGRFVFSLDTSVSTAYLQISSLKAEDTAVYYCARIPLYYYGSRYWYFDVWGQGTTVTVSS
modifications: constant regions without entry; synthetic humanized antibody light chain variable region sequence; synthetic humanized antibody heavy chain variable region sequence
B2: 93 (antibody, V domains shown)
VL: EIVMTQSPATLSVSPGERATLSCRASENIYRNLAWYQQKPGQSPRLLIYAATNLADGIPARFSGSGSGTEYTLTISSLQSEDFAVYYCQHFWGTPWTFGQGTKVEIK
VH: B1 VH
modifications: constant regions without entry; synthetic humanized antibody light chain variable region sequence; synthetic humanized antibody heavy chain variable region sequence
B3: 92 (antibody, V domains shown)
VL: B1 VL
VH: B1 VH with V2I, E46K, Q62D, G63D, T65K
modifications: constant regions without entry; synthetic humanized antibody light chain variable region sequence; synthetic humanized antibody heavy chain variable region sequence
B4: 88 (antibody, V domains shown)
VL: B1 VL
VH: B1 VH with E46K
modifications: constant regions without entry; synthetic humanized antibody light chain variable region sequence; synthetic humanized antibody heavy chain variable region sequence
B5: 91 (antibody, V domains shown)
VL: B1 VL
VH: B1 VH with E46K, Q62D, G63D, T65K
modifications: constant regions without entry; synthetic humanized antibody light chain variable region sequence; synthetic humanized antibody heavy chain variable region sequence
B6: 71 (antibody, V domains shown)
VH: B1 VH with V2I, E46K
VL: B2 VL
modifications: synthetic humanized antibody heavy chain variable region sequence; synthetic humanized antibody light chain variable region sequence
B7: 90 (antibody, V domains shown)
VL: B1 VL
VH: B1 VH with Q62D, G63D, T65K
modifications: constant regions without entry; synthetic humanized antibody light chain variable region sequence; synthetic humanized antibody heavy chain variable region sequence
B8: 89 (antibody, V domains shown)
VL: B1 VL
VH: B1 VH with V2I, E46K
modifications: constant regions without entry; synthetic humanized antibody light chain variable region sequence; synthetic humanized antibody heavy chain variable region sequence
B9: 94 (antibody, V domains shown)
VL: B2 VL
VH: B1 VH with E46K
modifications: constant regions without entry; synthetic humanized antibody light chain variable region sequence; synthetic humanized antibody heavy chain variable region sequence

Each molecule was assayed against SEAP-His (Homo sapiens, UniProt P05187) (assay: Selectivity ELISA of humanized antibodies for human Eph receptor). Details: coated protein 1 nM.
Format: binding
Summary of the method: (§1)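 Steps: coat anti-His antibody; block, then 1% BlockAce overnight at 4 °C; add Eph receptor extracellular region-SEAP-His (1 nM final) 1 h; add humanized antibody 1 h; add HRP anti-IgG 1 h; develop TMB; stop with acid; read 450 nm.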

SEAP-His, sequence (P05187 23-511 limits assumed): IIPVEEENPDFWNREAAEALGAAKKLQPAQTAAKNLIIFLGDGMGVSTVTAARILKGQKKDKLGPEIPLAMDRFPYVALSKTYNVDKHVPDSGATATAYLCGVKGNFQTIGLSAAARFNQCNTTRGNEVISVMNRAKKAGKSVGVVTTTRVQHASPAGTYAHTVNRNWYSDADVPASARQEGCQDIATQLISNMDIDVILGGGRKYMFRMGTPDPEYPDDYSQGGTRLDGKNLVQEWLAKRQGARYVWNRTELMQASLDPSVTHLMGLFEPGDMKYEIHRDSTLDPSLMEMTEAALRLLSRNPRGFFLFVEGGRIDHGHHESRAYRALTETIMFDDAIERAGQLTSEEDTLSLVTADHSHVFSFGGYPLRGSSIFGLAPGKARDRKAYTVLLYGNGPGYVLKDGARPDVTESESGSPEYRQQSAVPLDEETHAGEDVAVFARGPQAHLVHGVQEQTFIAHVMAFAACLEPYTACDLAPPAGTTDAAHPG

Molecule | SEAP-His: absorbance at 450 nm, percentage with respect to hEphA4-SEAP-His as 100% [%]
B1 | 5.5
B2 | 5.0
B3 | 6.5
B4 | 6.1
B5 | 6.4
B6 | 5.6
B7 | 5.2
B8 | 5.8
B9 | 6.7

These molecules were tested against T1, human EphA2 (Homo sapiens, UniProt P29317) in the same assay as above. Details: coated protein 1 nM.
T1 construct: a protein of the extracellular region of each human Eph receptor fused with the SEAP protein and the His tag; made in house; host or cells: Expi293F cells (culture supernatant)
Format: binding
Summary of the method: as §1

T1 sequence (P29317 24-537 limits assumed): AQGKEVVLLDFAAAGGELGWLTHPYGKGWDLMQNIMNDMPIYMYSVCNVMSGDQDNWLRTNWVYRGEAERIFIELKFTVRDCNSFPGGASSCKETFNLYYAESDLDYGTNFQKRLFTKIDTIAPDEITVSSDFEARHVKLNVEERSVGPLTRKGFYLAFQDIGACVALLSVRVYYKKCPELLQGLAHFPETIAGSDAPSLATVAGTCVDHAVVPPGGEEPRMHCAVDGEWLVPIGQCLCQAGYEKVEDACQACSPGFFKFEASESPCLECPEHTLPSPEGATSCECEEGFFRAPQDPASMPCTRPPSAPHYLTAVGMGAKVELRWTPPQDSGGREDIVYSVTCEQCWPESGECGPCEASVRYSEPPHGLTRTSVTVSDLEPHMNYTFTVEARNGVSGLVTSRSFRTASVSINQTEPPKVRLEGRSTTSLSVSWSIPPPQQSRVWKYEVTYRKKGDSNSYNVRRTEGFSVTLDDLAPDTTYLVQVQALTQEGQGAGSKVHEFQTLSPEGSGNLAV

Molecule | hEphA2-SEAP-: absorbance at 450 nm, percentage with respect to hEphA4-SEAP-His as 100% [%]
B1 | 5.4
B2 | 5.0
B3 | 6.9
B4 | 5.8
B5 | 6.1
B6 | 5.7
B7 | 5.2
B8 | 5.6
B9 | 6.4

These molecules were tested against T2, human EphA5 (Homo sapiens, UniProt P54756) in the same assay as above. Details: coated protein 1 nM.
T2 construct: a protein of the extracellular region of each human Eph receptor fused with the SEAP protein and the His tag; made in house; host or cells: Expi293F cells (culture supernatant)
Format: binding
Summary of the method: as §1

T2 sequence (P54756 25-573 limits assumed): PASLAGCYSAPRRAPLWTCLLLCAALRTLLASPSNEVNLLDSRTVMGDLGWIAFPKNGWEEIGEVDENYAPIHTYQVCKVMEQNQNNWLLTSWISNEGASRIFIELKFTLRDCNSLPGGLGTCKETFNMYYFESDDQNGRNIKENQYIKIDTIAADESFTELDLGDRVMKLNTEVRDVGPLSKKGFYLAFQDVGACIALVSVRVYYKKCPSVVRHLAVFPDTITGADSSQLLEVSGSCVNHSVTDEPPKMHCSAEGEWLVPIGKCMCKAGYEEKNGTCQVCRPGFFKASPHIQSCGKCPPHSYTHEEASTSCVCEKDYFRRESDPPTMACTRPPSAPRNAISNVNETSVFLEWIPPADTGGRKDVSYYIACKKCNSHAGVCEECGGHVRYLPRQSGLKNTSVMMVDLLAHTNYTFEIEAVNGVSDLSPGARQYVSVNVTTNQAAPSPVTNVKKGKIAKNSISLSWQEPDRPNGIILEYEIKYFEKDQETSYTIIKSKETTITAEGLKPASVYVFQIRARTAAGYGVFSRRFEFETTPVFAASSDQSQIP

Molecule | hEphA5-SEAP-: absorbance at 450 nm, percentage with respect to hEphA4-SEAP-His as 100% [%]
B1 | 5.4
B2 | 4.9
B3 | 6.8
B4 | 5.9
B5 | 6.4
B6 | 5.6
B7 | 5.1
B8 | 5.8
B9 | 6.5

The molecules below were run against T3, human EphB2 (Homo sapiens, UniProt P29323) in the same assay as above. Details: coated protein 1 nM.
T3 construct: a protein of the extracellular region of each human Eph receptor fused with the SEAP protein and the His tag; made in house; host or cells: Expi293F cells
T3 sequence (P29323 19-543 limits assumed): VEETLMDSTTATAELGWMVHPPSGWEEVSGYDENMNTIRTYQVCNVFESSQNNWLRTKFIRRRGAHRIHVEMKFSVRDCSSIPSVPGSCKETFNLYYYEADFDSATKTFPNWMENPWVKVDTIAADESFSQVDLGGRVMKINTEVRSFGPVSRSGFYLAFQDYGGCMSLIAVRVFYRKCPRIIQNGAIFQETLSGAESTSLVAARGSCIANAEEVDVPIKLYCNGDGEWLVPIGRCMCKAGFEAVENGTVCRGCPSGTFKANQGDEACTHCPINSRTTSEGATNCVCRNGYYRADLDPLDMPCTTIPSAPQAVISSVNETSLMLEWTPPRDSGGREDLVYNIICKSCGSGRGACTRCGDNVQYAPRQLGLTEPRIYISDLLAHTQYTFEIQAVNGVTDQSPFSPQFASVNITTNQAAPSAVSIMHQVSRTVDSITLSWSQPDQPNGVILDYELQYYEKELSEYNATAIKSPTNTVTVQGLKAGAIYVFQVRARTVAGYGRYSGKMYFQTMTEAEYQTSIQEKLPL
Format: binding
Summary of the method: as §1

Molecule | hEphB2-SEAP-: absorbance at 450 nm, percentage with respect to hEphA4-SEAP-His as 100% [%]
B1 | 5.4
B2 | 5.0
B3 | 6.6
B4 | 6.0
B5 | 7.0
B6 | 5.5
B7 | 5.9
B8 | 5.7
B9 | 7.0

These molecules were tested against T4, human EphB3 (Homo sapiens, UniProt P54753) in the same assay as above. Details: coated protein 1 nM.
T4 construct: a protein of the extracellular region of each human Eph receptor fused with the SEAP protein and the His tag; made in house; host or cells: Expi293F cells
T4 sequence (P54753 34-559 limits assumed): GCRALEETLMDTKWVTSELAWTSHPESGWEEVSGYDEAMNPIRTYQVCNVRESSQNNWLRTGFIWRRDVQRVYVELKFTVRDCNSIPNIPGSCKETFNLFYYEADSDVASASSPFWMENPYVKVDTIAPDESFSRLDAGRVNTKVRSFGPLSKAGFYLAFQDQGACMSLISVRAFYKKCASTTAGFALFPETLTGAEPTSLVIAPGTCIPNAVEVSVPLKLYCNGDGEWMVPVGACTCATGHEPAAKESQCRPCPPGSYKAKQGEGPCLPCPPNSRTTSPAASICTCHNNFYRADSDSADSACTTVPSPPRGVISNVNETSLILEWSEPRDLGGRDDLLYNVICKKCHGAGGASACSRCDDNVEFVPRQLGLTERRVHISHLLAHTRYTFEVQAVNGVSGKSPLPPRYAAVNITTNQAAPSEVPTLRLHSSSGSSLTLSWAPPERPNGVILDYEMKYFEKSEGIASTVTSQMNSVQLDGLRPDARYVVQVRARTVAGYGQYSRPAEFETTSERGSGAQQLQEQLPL
Format: binding
Summary of the method: as §1

Molecule | hEphB3-SEAP-: absorbance at 450 nm, percentage with respect to hEphA4-SEAP-His as 100% [%]
B1 | 5.5
B2 | 5.1
B3 | 6.9
B4 | 6.3
B5 | 7.0
B6 | 5.5
B7 | 5.1
B8 | 5.7
B9 | 6.7
